Positions count from the first letter of the chain named.

T1: human CD276 protein (human, UniProt Q5ZPR3 29-534)
T1 sequence (looked up): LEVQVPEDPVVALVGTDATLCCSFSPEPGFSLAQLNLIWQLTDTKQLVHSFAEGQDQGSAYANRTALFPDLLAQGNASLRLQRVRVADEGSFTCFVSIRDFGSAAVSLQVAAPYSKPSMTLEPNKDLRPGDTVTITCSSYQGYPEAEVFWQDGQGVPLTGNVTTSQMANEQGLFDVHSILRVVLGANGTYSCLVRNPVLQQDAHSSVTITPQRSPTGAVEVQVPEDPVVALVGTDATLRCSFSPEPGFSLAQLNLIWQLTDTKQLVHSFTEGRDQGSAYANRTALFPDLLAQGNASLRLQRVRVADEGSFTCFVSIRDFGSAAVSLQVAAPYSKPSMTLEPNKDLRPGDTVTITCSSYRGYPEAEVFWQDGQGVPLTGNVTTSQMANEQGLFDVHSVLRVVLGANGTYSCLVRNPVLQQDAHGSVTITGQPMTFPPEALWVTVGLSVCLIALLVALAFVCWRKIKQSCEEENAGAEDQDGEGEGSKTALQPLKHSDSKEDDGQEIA

T2: HUMAN B7H3 (Biacore analyte) (human, UniProt Q5ZPR3 29-461, limits assumed)
T2 construct: also called hB7H3
T2 sequence (looked up): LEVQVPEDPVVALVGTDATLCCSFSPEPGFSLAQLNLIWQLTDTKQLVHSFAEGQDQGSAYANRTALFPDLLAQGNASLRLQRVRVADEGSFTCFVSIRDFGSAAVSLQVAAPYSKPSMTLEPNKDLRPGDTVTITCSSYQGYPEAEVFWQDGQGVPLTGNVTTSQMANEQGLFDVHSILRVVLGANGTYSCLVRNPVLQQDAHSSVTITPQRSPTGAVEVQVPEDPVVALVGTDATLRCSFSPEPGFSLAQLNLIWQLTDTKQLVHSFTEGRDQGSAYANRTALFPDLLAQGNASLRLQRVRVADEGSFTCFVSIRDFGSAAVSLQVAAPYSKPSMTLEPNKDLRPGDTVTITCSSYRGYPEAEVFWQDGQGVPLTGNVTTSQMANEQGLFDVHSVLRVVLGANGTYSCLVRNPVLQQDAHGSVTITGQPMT

B1: 18-F9-D8-G7 (human IgG1 chimeric antibody) (antibody, V domains shown)
VH: EVQLQQSGPELVRPGVSVKISCKGSGYTFTDYAMHWVKQSHAQSLEWIGIINTYSGDTNYNQKFKGKATMTVDKSSSTAYMGLARLTSEDSAIFYCARGGGNYPYWYFDVWGAGTTVTVSS
VL: ENVLTQSPAIMSASPGEKVTMTCRASSSVSSSYLHWYQQKSGDSPKLWIYSTSNLASGVPARFSGSGSGTSYSLTISSVEAEDAATYYCQQFSVYPLTFGAGTKLEIK
notes: human IgG1 chimeric antibody of the mouse clone
B2: 16-C6-F7-F5 (human IgG1 chimeric antibody) (antibody, V domains shown)
VH: QIQLVQSGPEVKKPGETVKISCKASGYTFTKYGINWVKQAPGEGLKWMGWIWTYTGKPTYGDDFKGRFAFSLETSASTAYLQISDLKIEDMATYFCARDDGYYYTMNYWGQGTSVTVSS
VL: DIVMTQTPLSLPVSLGDQASISCRSSQSLLHTNGDTYLHWYLQKAGQPPKLLIYKVSNRFSGVPDRFSGSGSGTDFTLKISRVEAEDLGVYFCSQSTHIPWTFGGGTKLEIK
notes: as for B1
B3: 6-D8-E7-A11 (human IgG1 chimeric antibody) (antibody, V domains shown)
VH: QVHLQQPGAELVKPGASVKLSCKASGYTFTNYWMHWVKRRPGQGLEWIGMIHPNSGTTSFNEKFKSKATLTVDKSSSTAYMQLSSLTSEDSAVYYCAGYYGSSFSWFTYWGQGTLVTVSA
VL: QAVVTQESALTTSPGGTVILTCRSSTGAVTTSNFANWVQEKPDHLFTGLIGGTSNRAPGVPVRFSGSLIGDKAALTITGAQTEDDAMYFCALWYSTHYVFGGGTKVTVL
notes: as for B1
B4: 30-C7-C11-D4 (human IgG1 chimeric antibody) (antibody, V domains shown)
VH: EVQLVESGPGLVKPSQSLSLTCTVTGYSITSDYAWNWIRQFPGNKLEWMGYISHSGSTSYNPSLKSRISITRDTSKNQFFLQLNSVTTEDTATYYCARSLGRRWYFDVWGAGTTVTVSS
VL: DIVMTQSPSSLAMSVGQKVTLSCKSSQSLLNSSTQKNYLAWYQQKPGQSPKLLVYFASTRDSGVPDRFIGSGSGTEFTLTISSVQAEDLADYFCQQHYIIPFTFGAGTKLEIK
notes: as for B1
B5: mVH-mVL1-30 (antibody, V domains shown)
VH: B4 VH
VL: B4 VL with N31Q
B6: hVH1-hVL5-30 (antibody, V domains shown)
VH: QVQLQESGPGLVKPSQTLSLTCTVSGYSITSDYAWNWIRQHPGKGLEWIGYISHSGSTSYNPSLKSRVTISRDTSKNQFSLKLSSVTAADTAVYYCARSLGRRWYFDVWGQGTTVTVSS
VL: DIVMTQSPLSLPVTPGEPASISCKSSQSLLNSSTQKNYLAWYLQKPGQSPQLLIYFASTRDSGVPDRFSGSGSGTDFTLKISRVEAEDLGVYFCQQHYIIPFTFGQGTKLEIK
B7: hVH3-hVL2-30 (antibody, V domains shown)
VH: B6 VH with Q16E, H41P
VL: DIVMTQSPDSLAVSLGERATINCKSSQSLLNSSTQKNYLAWYQQKPGQPPKLLIYFASTRDSGVPDRFSGSGSGTDFTLTISSLQAEDLAVYFCQQHYIIPFTFGQGTKLEIK
B8: hVH2-hVL1-30 (antibody, V domains shown)
VH: B6 VH with Q16E, H41P
VL: DIQMTQSPSSLSASVGDRVTITCKSSQSLLNSSTQKNYLAWYQQKPGKAPKLLIYFASTRDSGVPSRFSGSGSGTDFTLTISSLQPEDLATYFCQQHYIIPFTFGQGTKLEIK
B9: hVH4-hVL5-30 (antibody, V domains shown)
VH: B6 VH with T23A, S25Y, H41P
VL: B6 VL
B10: hVH3-hVL5-30 (antibody, V domains shown)
VH: B6 VH with Q16E, H41P
VL: B6 VL
B11: hVH4-hVL2-30 (antibody, V domains shown)
VH: B6 VH with T23A, S25Y, H41P
VL: B7 VL
B12: hVH2-hVL1-10 (antibody, V domains shown)
VH: EVQLVESGGGLVQPGGSLRLSCATSGFTLSDYYMSWVRQAPGKGLEWVSFMRNKANGYTTEYSASVRGRFTISRDTSKSTIYLQMNSLRAEDTAVYYCVRDRDGRPFAYWGQGTLVTVSS
VL: DIVMTQSPDSLAVSLGERATINCKSSQSLLNSINQKNFLTWYQQKPGQPPKLLIYWASTRESGVPDRFSGSGSGTDFTLTISSLQAEDLAVYYCQNDYTYPLTFGQGTKLEIK
B13: hVH3-hVL3-10 (antibody, V domains shown)
VH: B12 VH with S49G, T80S, R89K, A90T
VL: DIQMTQSPSSLSASVGDRVTITCKSSQSLLNSINQKNFLTWYQQKPGKAPKLLIYWASTRESGVPSRFSGSGSGTDFTLTISSLQPEDLATYYCQNDYTYPLTFGQGTKLEIK
B14: hVH5-hVL1-10 (antibody, V domains shown)
VH: B12 VH with G16R, A23T, S49G, T80I, R89K, A90T
VL: B12 VL
B15: hVH4-hVL1-10 (antibody, V domains shown)
VH: B12 VH with V12I, A40P
VL: B12 VL
B16: mVH5-mVL4-10 (antibody, V domains shown)
VH: EVQLVESGGGLVQPGGSLRLSCATSGFTLSDYYMSWVRQPPGKAPEWLGFMRNKANAYTTEYSASVRGRFTISRDTSQSIIYLQMNTLRAEDGATYYCVRDREGRPFAYWGQGTLVTVSA
VL: DIVMTQSPSSLTVTAGEKVTMSCKSSQSLLNAINQKNFLTWYQQKPGQPPKLLIYWASTRESGVPDRFTGSGSGTDFTLTISSVQAEDLAIYYCQNDYTYPLTFGTGTKLELK

One experiment has as its target T1, human CD276 protein. The experiment is described as follows: cell-based or functional assay.
Turning to B1, the “IC50 of indirect ADC cytotoxicity on SKOV3” value came to 0.014 nM.
For B2, the “IC50 of indirect ADC cytotoxicity on SKOV3” value was 0.009 nM.
On the same count and under the same terms, with B3 the figure was 0.008 nM.

A further experiment concerns the target T1, human CD276 protein. The experiment is described as follows: FACS on SKOV3 cells. The essentials:
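Human IgG1 chimeric antibodies were tested for binding to trypsin-detached SKOV3 ovarian cancer cells by flow cytometry, with cells washed in FACS buffer and kept in the dark before acquisition. Titration read-out was MFI plotted against antibody concentration (nM).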
Turning to B1, the EC50 stood at 0.286 µg/mL and the “MFI (Max)” value was determined as 4610.
On the same counts, the results for B4 are 0.282 µg/mL and 4270.
The corresponding values for B2 are 0.186 µg/mL and 5350.
B3: the midpoint of the response, the EC50, lay at 0.402 µg/mL and the “MFI (Max)” value came out at 2830.

The next experiment addresses T1, human CD276 protein. The experiment is described as follows: FACS titration on SKOV3 cells (MFI against Conc. (nM)); unit taken from the concentration axis.
Regarding B4, the EC50 was found to be 7.98 nM.
With B5, the EC50 was found to be 9.64 nM.
In turn, B6 returned an EC50 of 11.3 nM.
Still for that read-out and setting: with B7 the figure was 5.93 nM; with B8, 9.51 nM.
The same measure, in the same setting: with B9 the figure was 8.52 nM; with B10, 6.37 nM; with B11, 9.77 nM.

The target of the next experiment is T1, human CD276 protein. The experiment is described as follows: cell-based or functional assay. The source holds these as a separate data set.
For the molecule B1, the “EC50 of antibody induced CDC effect” value was 2.44 nM and the “Top cytotoxicity (%), CDC” value stood at 70.3%.
The corresponding values for B4 are 3.21 nM and 60.3%.
The corresponding values for B2 are 1.28 nM and 92.1%.
On to B3, for which the “EC50 of antibody induced CDC effect” value was 1.57 nM and the “Top cytotoxicity (%), CDC” value was determined as 92.5%.

For the next experiment, the target named is T1, human CD276 protein. The experiment is described as follows: FACS titration on SKOV3 cells (MFI against Conc. (nM)); unit taken from the concentration axis. The source holds these as a separate data set. An excerpt:
Sequences of 31 mouse antibodies from Table 5 were selected to generate and produce human IgG1 chimeric antibodies. The binding affinity of these antibodies and bench mark antibody, Enoblituzumab (see U.S. Pat. No. 8,802,091, MGA271, specifically with a construct designated as hBRCA84D-2) and MGC018 (an antibody-drug-conjugate, in which the mAb MGA017 (human IgG1) is conjugated via a cleavable linker to the prodrug seco-DUocarmycin hydroxyBenzamide Azaindole (DUBA), an alkylating agent that can damage DNA in both dividing and non-dividing cells, thereby causing cell death) with human patient derived ovarian cancer cell line, SKOV3, was determined by FACS analysis.
1. Digested cells using Trypsin (1×); Centrifuged the harvested cells at 300 g for 3 min and discarding the supernatant. […] 2. Washed the cells 2 times with FACS buffer by centrifuging at 300 g for 3 min and discarding the supernatant. [0445] 3. […] Kept the cells in dark for FACS analysis.
Turning to B12, the EC50 came to 1.92 nM.
For B13, the midpoint of the response, the EC50, lay at 2.75 nM.
In the case of B14, the EC50 is 2.63 nM.
Same read-out and setting: with B15 the figure was 1.9 nM; with B16, 2.76 nM.

For another experiment, the target named is T1, human CD276 protein. The experiment is described as follows: cell-based or functional assay. The source holds these as a separate data set.
On to B1, for which the “EC50 of antibody induced ADCC effect on SKOV3” value came out at 0.503 µg/mL.
Still for that read-out and setting: with B4 the figure was 0.0327 µg/mL; with B2, 0.00664 µg/mL; with B3, 0.0668 µg/mL.

A further experiment has as its target T2, HUMAN B7H3 (Biacore analyte). The experiment is described as follows: SPR, Biacore 8K, antibody captured, B7H3 as analyte, 1:1 binding.
The molecule B1 showed a Kd of 0.489 nM, a koff of 0.000239 s⁻¹ and a kon of 489000 M⁻¹ s⁻¹.
The corresponding values for B2 are 0.645 nM, 0.000243 s⁻¹ and 377000 M⁻¹ s⁻¹.
Turning to B3, the Kd is 0.749 nM, the koff was found to be 0.000348 s⁻¹ and the on-rate (kon) turned out to be 464000 M⁻¹ s⁻¹.

For the origin of these results see patent US20240400689A1 (ANTENGENE BIOLOGICS, published 2024).
